From IntAct's records for PubMed 21282611

B1: WD-40 repeat-containing protein MSI4 (Arabidopsis thaliana (Mouse-ear cress)), O22607 (parent)
chain: MESDEAAAVSPQATTPSGGTGASGPKKRGRKPKTKEDSQTPSSQQQSDVKMKESGKKTQQSPSVDEKYSQWKGLVPILYDWLANHNLVWPSLSCRWGPQLEQATYKNRQRLYLSEQTDGSVPNTLVIANCEVVKPRVAAAEHISQFNEEARSPFVKKYKTIIHPGEVNRIRELPQNSKIVATHTDSPDVLIWDVETQPNRHAVLGAANSRPDLILTGHQDNAEFALAMCPTEPFVLSGGKDKSVVLWSIQDHITTIGTDSKSSGSIIKQTGEGTDKNESPTVGPRGVYHGHEDTVEDVAFSPTSAQEFCSVGDDSCLILWDARTGTNPVTKVEKAHDADLHCVDWNPHDDNLILTGSADNTVRLFDRRKLTANGVGSPIYKFEGHKAAVLCVQWSPDKSSVFGSSAEDGLLNIWDYDRVSKKSDRAAKSPAGLFFQHAGHRDKVVDFHWNASDPWTIVSVSDDCETTGGGGTLQIWRMSDLIYRPEEEVVAELEKFKSHVMTCASKP
partner: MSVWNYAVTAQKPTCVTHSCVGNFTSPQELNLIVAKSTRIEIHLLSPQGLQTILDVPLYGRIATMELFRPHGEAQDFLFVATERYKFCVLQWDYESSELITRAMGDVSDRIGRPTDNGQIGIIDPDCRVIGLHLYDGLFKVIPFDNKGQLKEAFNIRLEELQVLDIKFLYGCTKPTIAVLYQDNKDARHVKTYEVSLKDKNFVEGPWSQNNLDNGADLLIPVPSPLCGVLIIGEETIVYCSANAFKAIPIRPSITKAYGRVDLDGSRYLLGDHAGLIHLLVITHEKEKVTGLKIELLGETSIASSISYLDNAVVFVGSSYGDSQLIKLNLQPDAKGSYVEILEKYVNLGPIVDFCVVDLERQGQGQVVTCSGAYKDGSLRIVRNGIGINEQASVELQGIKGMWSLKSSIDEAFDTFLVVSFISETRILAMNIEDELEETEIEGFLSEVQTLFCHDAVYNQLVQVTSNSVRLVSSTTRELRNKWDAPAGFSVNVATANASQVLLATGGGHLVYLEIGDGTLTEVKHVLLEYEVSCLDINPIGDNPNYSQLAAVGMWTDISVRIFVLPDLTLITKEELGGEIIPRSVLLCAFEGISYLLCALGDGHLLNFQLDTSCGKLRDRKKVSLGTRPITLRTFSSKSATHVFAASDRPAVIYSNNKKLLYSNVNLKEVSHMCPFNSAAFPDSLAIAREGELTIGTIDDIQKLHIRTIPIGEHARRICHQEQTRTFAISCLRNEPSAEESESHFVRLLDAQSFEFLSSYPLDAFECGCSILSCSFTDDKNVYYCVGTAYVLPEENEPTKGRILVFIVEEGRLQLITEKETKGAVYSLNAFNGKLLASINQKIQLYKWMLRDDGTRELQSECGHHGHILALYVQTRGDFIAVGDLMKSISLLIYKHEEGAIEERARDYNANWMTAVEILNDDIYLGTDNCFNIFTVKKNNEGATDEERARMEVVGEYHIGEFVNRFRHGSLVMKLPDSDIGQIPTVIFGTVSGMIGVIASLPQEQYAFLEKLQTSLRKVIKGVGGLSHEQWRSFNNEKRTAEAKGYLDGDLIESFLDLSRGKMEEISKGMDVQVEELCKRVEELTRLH
B2: WD-40 repeat-containing protein MSI4 (Arabidopsis thaliana (Mouse-ear cress)), O22607 (parent)
chain: B1 chain
partner: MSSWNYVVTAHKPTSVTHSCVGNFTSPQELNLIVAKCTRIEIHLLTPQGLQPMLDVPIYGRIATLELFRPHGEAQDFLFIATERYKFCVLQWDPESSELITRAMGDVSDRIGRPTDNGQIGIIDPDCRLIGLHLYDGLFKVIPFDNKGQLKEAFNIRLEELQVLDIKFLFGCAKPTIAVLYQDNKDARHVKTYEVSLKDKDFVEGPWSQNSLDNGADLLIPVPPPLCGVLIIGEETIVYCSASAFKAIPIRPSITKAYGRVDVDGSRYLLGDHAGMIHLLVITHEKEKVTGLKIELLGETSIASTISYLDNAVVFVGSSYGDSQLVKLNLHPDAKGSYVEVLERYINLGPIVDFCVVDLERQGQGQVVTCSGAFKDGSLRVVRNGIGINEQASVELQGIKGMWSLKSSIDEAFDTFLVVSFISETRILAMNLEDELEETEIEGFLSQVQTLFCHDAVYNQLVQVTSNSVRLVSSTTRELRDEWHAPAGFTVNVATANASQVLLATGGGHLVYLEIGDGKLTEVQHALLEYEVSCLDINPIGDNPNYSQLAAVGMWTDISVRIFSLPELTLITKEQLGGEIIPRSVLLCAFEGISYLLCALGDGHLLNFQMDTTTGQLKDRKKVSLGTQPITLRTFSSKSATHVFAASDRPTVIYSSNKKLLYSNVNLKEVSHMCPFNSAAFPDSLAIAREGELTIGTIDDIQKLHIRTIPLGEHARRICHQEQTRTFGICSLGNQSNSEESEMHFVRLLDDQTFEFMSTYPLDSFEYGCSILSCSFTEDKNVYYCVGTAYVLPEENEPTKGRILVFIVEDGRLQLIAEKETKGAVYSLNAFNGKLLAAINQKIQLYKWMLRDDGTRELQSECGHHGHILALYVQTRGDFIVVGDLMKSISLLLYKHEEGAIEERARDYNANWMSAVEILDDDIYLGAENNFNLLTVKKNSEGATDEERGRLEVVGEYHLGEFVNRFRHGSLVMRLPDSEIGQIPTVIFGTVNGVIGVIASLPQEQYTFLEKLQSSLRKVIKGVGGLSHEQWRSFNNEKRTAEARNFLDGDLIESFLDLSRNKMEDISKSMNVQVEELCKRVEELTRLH

Variants of: B1
Conditions: with ddb1b_arath DDB1B

Variant | effect of a mutation on the interaction
MESDEAAAVSPQATTPSGGTGASGPKKRGRKPKTKEDSQTPSSQQQSDVKMKESGKKTQQSPSVDEKYSQWKGLVPILYDWLANHNLVWPSLSCRWGPQLEQATYKNRQRLYLSEQTDGSVPNTLVIANCEVVKPRVAAAEHISQFNEEARSPFVKKYKTIIHPGEVNRIRELPQNSKIVATHTDSPDVLIWDVETQPNRHAVLGAANSRPDLILTGHQDNAEFALAMCPTEPFVLSGGKDKSVVLWSIQDHITTIGTDSKSSGSIIKQTGEGTDKNESPTVGPRGVYHGHEDTVEDVAFSPTSAQEFCSVGDDSCLILWDAHTGTNPVTKVEKAHDADLHCVDWNPHDDNLILTGSADNTVRLFDRRKLTANGVGSPIYKFEGHKAAVLCVQWSPDKSSVFGSSAEDGLLNIWDYDRVSKKSDRAAKSPAGLFFQHAGHRDKVVDFHWNASDPWTIVSVSDDCETTGGGGTLQIWRMSDLIYRPEEEVVAELEKFKSHVMTCASKP [R323H] | decreasing interaction strength

Variants of: B2
Conditions: with ddb1a_arath DDB1A

Variant | effect of a mutation on the interaction
MESDEAAAVSPQATTPSGGTGASGPKKRGRKPKTKEDSQTPSSQQQSDVKMKESGKKTQQSPSVDEKYSQWKGLVPILYDWLANHNLVWPSLSCRWGPQLEQATYKNRQRLYLSEQTDGSVPNTLVIANCEVVKPRVAAAEHISQFNEEARSPFVKKYKTIIHPGEVNRIRELPQNSKIVATHTDSPDVLIWDVETQPNRHAVLGAANSRPDLILTGHQDNAEFALAMCPTEPFVLSGGKDKSVVLWSIQDHITTIGTDSKSSGSIIKQTGEGTDKNESPTVGPRGVYHGHEDTVEDVAFSPTSAQEFCSVGDDSCLILWDAHTGTNPVTKVEKAHDADLHCVDWNPHDDNLILTGSADNTVRLFDRRKLTANGVGSPIYKFEGHKAAVLCVQWSPDKSSVFGSSAEDGLLNIWDYDRVSKKSDRAAKSPAGLFFQHAGHRDKVVDFHWNASDPWTIVSVSDDCETTGGGGTLQIWRMSDLIYRPEEEVVAELEKFKSHVMTCASKP [R323H] | decreasing interaction strength
